Publication PMC8291764

Experiments:
Padron = assay: SEC; purified protein diluted to 10 μM, equilibrated at 6 °C overnight; 250 μL on Superdex 200 Increase 10/300 GL, run at 6 °C, 0.75 mL/min, absorption at 280 nm; elution volumes compared with tetrameric DsRed, dimeric dTomato and monomeric mEGFP
Kohinoor = assay: as above

Row | stoichiometry N (Padron) | stoichiometry N (Kohinoor) | Substance
1 | 4 |  | Padron
2 |  | 2 | Kohinoor
